Results on 43 molecules are retold here after patent publication US20140363428A1 (Chugai, published 2014).

Substitutions are numbered along the chain they refer to.

First the molecules themselves.
B1: IgG1-F1353 (antibody)
heavy: QVQLQESGPGLVKPSETLSLTCAVSGHSISHDHAWSWVRQPPGEGLEWIGFISYSGITNYNPSLQGRVTISRDNSKNTLYLQMNSLRAEDTAVYYCARSLARTTAMDYWGEGTLVTVSSASTKGPSVFPLAPSSKSTSGGTAALGCLVKDYFPEPVTVSWNSGALTSGVHTFPAVLQSSGLYSLSSVVTVPSSSLGTQTYICNVNHKPSNTKVDKKVEPKSCDKTHTCPPCPAPELRGGPKVFLFPPKPKDTLYISRTPEVTCVVVDVSHEDPEVKFNWYVDGVEVHNAKTKPREEQYNSTYRVVSVLTVLHQDWLNGKEYKCKVSNKALPAPIEKTISKAKGQPREPQVYTLPPSRDELTKNQVSLTCLVKGFYPSDIAVEWESNGQPENNYKTTPPVLDSDGSFFLYSKLTVDKSRWQQGNVFSCSVMHEALDYHTTRKELSLSP
light: not shown
B2: IgG1-F1358 (antibody)
heavy: B1 heavy with S256T, D435H, T438F, R440K
light: not shown
B3: IgG1-F1361 (antibody)
heavy: B1 heavy with S256T
light: not shown
B4: IgG1-F1411 (antibody)
heavy: QVQLQESGPGLVKPSETLSLTCAVSGHSISHDHAWSWVRQPPGEGLEWIGFISYSGITNYNPSLQGRVTISRDNSKNTLYLQMNSLRAEDTAVYYCARSLARTTAMDYWGEGTLVTVSSASTKGPSVFPLAPSSKSTSGGTAALGCLVKDYFPEPVTVSWNSGALTSGVHTFPAVLQSSGLYSLSSVVTVPSSSLGTQTYICNVNHKPSNTKVDKKVEPKSCDKTHTCPPCPAPELLGGPSVFLFPPKPKDTLMISRTPEVTCVVVDVSHEDPEVKFNWYVDGVEVHNAKTKPREEQYNSTYRVVSVLTPLHQDWLNGKEYKCKVSNKALPAPVEKTISKAKGQPREPQVYTLPPSRDELTKNQVSLTCLVKGFYPSDIAVEWESNGQPENNYKTTPPVLDSDGSFFLYSKLTVDKSRWQQGNVFSCSVLHEALHSHYTQKSLSLSP
light: not shown
B5: IgG1-F1362 (antibody)
heavy: B1 heavy with S256T, T438F, R440K
light: not shown
B6: IgG1-F1365 (antibody)
heavy: B1 heavy with T258E, R440K
light: not shown
B7: IgG1-F1376 (antibody)
heavy: B1 heavy with S256T, T258E, D435H, T438V, R440Q, E442S
light: not shown
B8: IgG1-F1375 (antibody)
heavy: B1 heavy with S256T, D435H, T438V, R440Q, E442S
light: not shown
B9: IgG1-F1359 (antibody)
heavy: B1 heavy with S256T, D435H, T438F
light: not shown
B10: IgG1-F1367 (antibody)
heavy: B1 heavy with S256T, T258E, D435H
light: not shown
B11: IgG1-F1414 (antibody)
heavy: B1 heavy with S256T, T258E, T309Q, T438V, R440K
light: not shown
B12: IgG1-F1368 (antibody)
heavy: B1 heavy with S256T, T258E, D435H, T438F, R440K
light: not shown
B13: IgG1-F1373 (antibody)
heavy: B1 heavy with S256T, T258E, T438F, R440K
light: not shown
B14: IgG1-F1415 (antibody)
heavy: B1 heavy with S256T, T258E, Q313A, T438V, R440K
light: not shown
B15: IgG1-F1360 (antibody)
heavy: B1 heavy with S256T, R440K
light: not shown
B16: IgG1-F1377 (antibody)
heavy: B1 heavy with T258E, D435H, T438V, R440Q, E442S
light: not shown
B17: IgG1-F1354 (antibody)
heavy: B1 heavy with T438F, R440K
light: not shown
B18: IgG1-F1355 (antibody)
heavy: B1 heavy with T438F
light: not shown
B19: IgG1-F1372 (antibody)
heavy: B1 heavy with S256T, T258E
light: not shown
B20: IgG1-F1356 (antibody)
heavy: B4 heavy with G238R, M254Y, P310V, L330R, V334I, L430M, S436Y, Y438V
light: not shown
B21: IgG1-F1357 (antibody)
heavy: B1 heavy with S256T, D435H
light: not shown
B22: IgG1-F1418 (antibody)
heavy: B1 heavy with S256T, T258E, Y436W, T438V
light: not shown
B23: IgG1-F1417 (antibody)
heavy: B1 heavy with S256T, T258E, Y436W, T438V, R440K
light: not shown
B24: IgG1-F1366 (antibody)
heavy: B1 heavy with T258E, T438F, R440K
light: not shown
B25: IgG1-F1364 (antibody)
heavy: B1 heavy with T258E, D435H, T438F, R440K
light: not shown
B26: F1647 (antibody)
chain 1: B1 heavy with S256T, T258E, D435P, T438V, R440K
chain 2: DIQMTQSPSSLSASVGDSVTITCQASTDISSHLNWYQQKPGKAPELLIYYGSHLLSGVPSRFSGSGSGTDFTFTISSLEAEDAATYYCGQGNRLPYTFGQGTKVEIERTVAAPSVFIFPPSDEQLKSGTASVVCLLNNFYPREAKVQWKVDNALQSGNSQESVTEQDSKDSTYSLSSTLTLSKADYEKHKVYACEVTHQGLSSPVTKSFNRGEC
B27: F1643 (antibody)
chain 1: B1 heavy with S256T, T258E, D435A, T438V, R440K, E442D
chain 2: B26 chain 2
B28: F1615 (antibody)
chain 1: B1 heavy with S256T, R257L, T258E, E260I, T438V, E442D
chain 2: B26 chain 2
B29: F1646 (antibody)
chain 1: B1 heavy with S256T, T258E, D435K, T438V, R440K, E442D
chain 2: B26 chain 2
B30: F1644 (antibody)
chain 1: B1 heavy with S256T, T258E, D435K, T438V, R440K
chain 2: B26 chain 2
B31: F1641 (antibody)
chain 1: B1 heavy with S256T, T258E, D435A, T438V, R440K
chain 2: B26 chain 2
B32: F1567 (antibody)
chain 1: B1 heavy with S256T, T258E, D435A, T438V
chain 2: B26 chain 2
B33: F1649 (antibody)
chain 1: B1 heavy with S256T, T258E, D435P, T438V, R440K, E442D
chain 2: B26 chain 2
B34: F1579 (antibody)
chain 1: B1 heavy with S256T, T258E, D435S, T438V
chain 2: B26 chain 2
B35: F1613 (antibody)
chain 1: B1 heavy with S256T, R257L, T258E, E260I, T438V, R440K, E442D
chain 2: B26 chain 2
B36: F1642 (antibody)
chain 1: B1 heavy with S256T, T258E, D435A, T438V, E442D
chain 2: B26 chain 2
B37: F1576 (antibody)
chain 1: B1 heavy with S256T, T258E, D435P, T438V
chain 2: B26 chain 2
B38: F1648 (antibody)
chain 1: B1 heavy with S256T, T258E, D435P, T438V, E442D
chain 2: B26 chain 2
B39: F1645 (antibody)
chain 1: B1 heavy with S256T, T258E, D435K, T438V, E442D
chain 2: B26 chain 2
B40: F1572 (antibody)
chain 1: B1 heavy with S256T, T258E, D435K, T438V
chain 2: B26 chain 2
B41: F1614 (antibody)
chain 1: B1 heavy with S256T, R257L, T258E, E260D, T438V, E442D
chain 2: B26 chain 2
B42: F1578 (antibody)
chain 1: B1 heavy with S256T, T258E, D435R, T438V
chain 2: B26 chain 2
B43: F1650 (antibody)
chain 1: B1 heavy with S256T, T258E, D435R, T438V, R440K
chain 2: B26 chain 2

T1 sequence (P55899 24-297 limits assumed, chain 1 of 2): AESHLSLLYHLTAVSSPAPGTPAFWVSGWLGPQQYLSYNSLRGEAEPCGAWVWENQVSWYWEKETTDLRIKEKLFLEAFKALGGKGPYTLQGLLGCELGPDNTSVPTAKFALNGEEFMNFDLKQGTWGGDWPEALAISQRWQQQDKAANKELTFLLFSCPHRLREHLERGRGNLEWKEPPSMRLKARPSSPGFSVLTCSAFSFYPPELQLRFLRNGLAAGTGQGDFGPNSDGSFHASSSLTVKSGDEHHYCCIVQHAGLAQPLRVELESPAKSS
T1 sequence (P61769 21-119 limits assumed, chain 2 of 2): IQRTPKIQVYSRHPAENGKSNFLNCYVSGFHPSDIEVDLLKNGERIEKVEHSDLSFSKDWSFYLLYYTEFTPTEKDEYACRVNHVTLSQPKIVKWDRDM

The first assay has as its target T1, soluble human FcRn (human, UniProt P55899 24-297; P61769 21-119).
T1 construct: Heterodimer of alpha chain and beta2-microglobulin; also called hFcRn
Description: SPR (Biacore), pH 7.0, 25 C.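 Note: antibodies captured on a protein L-coated CM4 chip with human FcRn injected as analyte, KD obtained from ka and kd fitted to sensorgrams, in sodium phosphate buffer.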 In general terms: SPR reads the build-up and loss of mass on a sensor chip optically.
Description: An appropriate amount of protein L (ACTIGEN) was immobilized onto Sensor chip CM4 (GE Healthcare) by the amino coupling method, and the chip was allowed to capture an antibody of interest. Then, diluted FcRn solutions and running buffer (as a reference solution) were injected to allow human FcRn to interact with the antibody captured on the sensor chip. The running buffer used comprised 50 mmol/l sodium phosphate, 150 mmol/l NaCl, and 0.05% (w/v) Tween20 (pH 7.0). FcRn was diluted using each buffer. The chip was regenerated using 10 mmol/l glycine-HCl (pH 1.5). Assays were carried out exclusively at 25 degrees C. The association rate constant ka (1/Ms) and dissociation rate constant kd (1/s), both of which are kinetic parameters, were calculated based on the sensorgrams obtained in the assays, and KD (M) of each antibody for human FcRn was determined from these values. Each parameter was calculated using Biacore T100 Evaluation Software (GE Healthcare).
Consider B1, for which the equilibrium dissociation constant (Kd) (in general, the free concentration of one partner at which half of the binding sites on the other are occupied at equilibrium, for simple one-to-one binding) was determined as 430 nM.
Molecule B2 yielded a Kd of 91 nM.
Still for that read-out and setting: under B3 stands 350 nM.
In turn, B4 registered a dissociation constant Kd of 170 nM.
As for B5, the equilibrium dissociation constant (Kd) came out at 140 nM.
The same measure, in the same setting: for B6 the value was 310 nM; for B7, 91 nM.
B8 came in with an equilibrium dissociation constant (Kd) of 100 nM.
For B9, binding was characterised by a dissociation constant (Kd) of 130 nM.
Same read-out and setting: for B10 the value was 180 nM; for B11, 56 nM; for B12, 55 nM.
Still for that read-out and setting: for B13 the value was 87 nM; for B14, 59 nM; for B15, 310 nM.
On the same count and under the same terms, under B16 stands 83 nM.
Regarding B17, the Kd came out at 230 nM.
In turn, B18 registered a dissociation constant Kd of 250 nM.
For the molecule B19, the Kd was 230 nM.
On the same count and under the same terms, for B20 the value was 160 nM; for B21, 280 nM.
On the same count and under the same terms, for B22 the value was 75 nM; for B23, 59 nM.
For the molecule B24, the affinity, expressed as Kd, was 120 nM.
The same measure, in the same setting: for B25 the value was 75 nM.

In another assay the target is T1, soluble human FcRn. Description: SPR (Biacore), pH 7.0.
Take B26: the Kd stood at 38 nM.
Same read-out and setting: under B27 stands 39 nM; under B28, 60 nM; under B29, 35 nM.
The same measure, in the same setting: for B30 the value was 35 nM; for B31, 41 nM; for B32, 48 nM.
Regarding B33, the Kd is 37 nM.
The same measure, in the same setting: for B34 the value was 54 nM; for B35, 52 nM; for B36, 41 nM.
Still for that read-out and setting: under B37 stands 43 nM; under B38, 38 nM; under B39, 36 nM.
For B40, the Kd worked out at 41 nM.
On the same count and under the same terms, for B41 the value was 51 nM; for B42, 46 nM; for B43, 40 nM.
